The values that follow are results of earlier work, collected in PMC2726620 (Journal of medicinal chemistry, 2008).

Non-standard residues stand in square brackets, D forms with d. Residues, ends and D or L forms follow the SMILES beside them. No end group written: not given here. *: point of attachment. Fmoc = O=C(OCC1c2ccccc2-c2ccccc21)*; NMePhg = CN[C@H](C(=O)O)c1ccccc1; Cha = N[C@@H](CC1CCCCC1)C(=O)O

As usually defined, the Ki is a dissociation constant, usually derived from enzyme kinetics or from competition with a known ligand. The IC50 is the midpoint of a concentration-inhibition curve.

The target of data set [1] is EcR2 20-mer peptide C-terminal 20-mer (Escherichia coli) (UniProt P69924).
In data set [2] the target is EcR2 octapeptide C-terminal octapeptide (Escherichia coli) (UniProt P69924).
Another data set addresses T1, ScRR (Saccharomyces cerevisiae, UniProt P21524).
T1 sequence (P21524 1-888): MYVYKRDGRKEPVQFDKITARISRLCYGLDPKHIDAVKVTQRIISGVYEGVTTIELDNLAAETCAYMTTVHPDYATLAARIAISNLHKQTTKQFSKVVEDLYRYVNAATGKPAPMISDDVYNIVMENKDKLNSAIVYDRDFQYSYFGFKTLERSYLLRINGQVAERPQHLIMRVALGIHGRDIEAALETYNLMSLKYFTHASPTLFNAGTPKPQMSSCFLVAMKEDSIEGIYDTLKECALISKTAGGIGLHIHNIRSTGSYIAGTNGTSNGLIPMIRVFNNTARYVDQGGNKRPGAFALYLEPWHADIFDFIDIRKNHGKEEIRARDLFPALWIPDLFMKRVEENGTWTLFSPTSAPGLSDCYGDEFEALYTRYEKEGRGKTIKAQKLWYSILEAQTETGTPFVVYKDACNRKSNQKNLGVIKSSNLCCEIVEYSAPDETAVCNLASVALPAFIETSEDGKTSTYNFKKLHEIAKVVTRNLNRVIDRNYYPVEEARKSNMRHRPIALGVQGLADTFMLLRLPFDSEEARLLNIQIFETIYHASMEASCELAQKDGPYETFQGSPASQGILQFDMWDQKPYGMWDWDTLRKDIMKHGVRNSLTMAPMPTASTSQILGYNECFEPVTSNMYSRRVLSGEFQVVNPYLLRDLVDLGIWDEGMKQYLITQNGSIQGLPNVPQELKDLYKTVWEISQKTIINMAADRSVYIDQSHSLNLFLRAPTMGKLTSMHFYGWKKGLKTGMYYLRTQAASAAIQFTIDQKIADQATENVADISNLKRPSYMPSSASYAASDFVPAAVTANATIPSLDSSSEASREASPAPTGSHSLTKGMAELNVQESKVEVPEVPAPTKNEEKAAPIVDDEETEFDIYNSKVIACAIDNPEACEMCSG
The note with it: read-out: IC50, ScRR; footnote *: IC50 values were reported in [30].

The next data set concerns the target mR1 dimer. Particulars: read-out: Ki for mR1 dimer; from directed minilibrary screening studies.

Chain of EcR2 octapeptide C-terminal octapeptide (Escherichia coli) (P69924 whole entry, looked up): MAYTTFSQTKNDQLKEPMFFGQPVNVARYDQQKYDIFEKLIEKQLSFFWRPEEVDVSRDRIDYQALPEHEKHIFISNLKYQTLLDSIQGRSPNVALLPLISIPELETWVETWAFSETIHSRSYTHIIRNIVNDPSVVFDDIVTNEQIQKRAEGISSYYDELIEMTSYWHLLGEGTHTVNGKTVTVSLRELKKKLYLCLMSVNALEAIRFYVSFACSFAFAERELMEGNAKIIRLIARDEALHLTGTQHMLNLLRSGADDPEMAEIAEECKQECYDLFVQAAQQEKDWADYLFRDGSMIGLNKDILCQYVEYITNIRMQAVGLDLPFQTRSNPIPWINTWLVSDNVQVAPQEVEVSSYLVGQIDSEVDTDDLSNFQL
Chain of EcR2 20-mer peptide C-terminal 20-mer (Escherichia coli) (P69924 357-376): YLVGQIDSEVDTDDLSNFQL

As to “ribonucleotide reductase R1 (EcR1) (from UniProt P00452)”, the results for the Ki in data set [1] and in data set [2] were 20 µM and 370 µM, respectively.

Regarding “^1FTFNEDF^7 (not fully specified; printed as 1FTFNEDF7) [ScR2]”, the IC50 with ScRR was 44 µM.

For the molecule `CC(C)C[C@H](NC(=O)[C@H](c1ccccc1)N(C)C(=O)OCC1c2ccccc2-c2ccccc21)C(=O)N[C@@H](CC(=O)O)C(=O)N[C@@H](CC1CCCCC1)C(=O)N[C@@H](CC(=O)O)C(=O)N[C@@H](Cc1ccccc1)C(=O)O` [P6, ^1Fmoc(Me)PhgLDChaDF^7] (Fmoc-[NMePhg]LD[Cha]DF-OH; C-terminus assumed), on mR1 dimer, the inhibitory constant (Ki) was 0.31 µM.

Turning to “^2NFDDDF^7 (not fully specified; printed as 2NFDDDF7) [ScR4]”, the IC50 with ScRR was 30 µM.
